The values that follow come from the supplement of paper PMC12042874.

The nature of the series: amyloid nucleation score (Sup35N fusion, yeast selection) (log enrichment); library NNK2; higher = more nucleation; inactive = no reads after selection. The essentials:
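The nucleation score is the log enrichment of output over input reads, calculated with DiMSum and centred on the mode score of non-aggregating sequences. Sequences with under 100 input reads were excluded. Reads came from Illumina sequencing of plasmid inserts from psi-negative yeast expressing Sup35N fused to peptides of 20 random codons, induced 24 hours with 100 μM copper sulfate and grown 7 days at 30°C without adenine and uracil.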

± gives the uncertainty stated by the source.

As to VSNCLQGLYFCWSTGSRSRI, the amyloid nucleation score amounted to 6.796 ± 0.03.

Take LFHFGNCSRIRGWGICVTSL: the amyloid nucleation score is -0.506 ± 0.55.

In turn, SYSYFLELVSYKFSVVFLSI returned an amyloid nucleation score of 0.715 ± 0.58.

Regarding ECMAWGIFCGGSSGIFCLNQ, the amyloid nucleation score entry was “inactive”.

In turn, VIMGFFGITFGWCKRSEVHE had an amyloid nucleation score of 2.49 ± 0.11.

Consider NALGRMCGSWRLVIHISDWW, for which the amyloid nucleation score turned out to be 0.236 ± 0.23.

Take EHLCPYF: the amyloid nucleation score stood at 0.667 ± 0.46.

In turn, SGTDDLCMVPLGYLLTMRLP came in with an amyloid nucleation score of 0.7 ± 0.39.

With WGEVRLCESMVCCLGRIQGR, the amyloid nucleation score was 4.1 ± 0.063.

In the case of PVWGSTCWFDVTWVRFKLFW, the amyloid nucleation score amounted to 2.61 ± 0.11.

On to VTKHLGEARKLVLDQRLHWG, for which the amyloid nucleation score was 5.601 ± 0.047.

As to ASKSYIITSSCRASLTVSSL, the amyloid nucleation score entry was “inactive”.

On to AQAMLSNTILIYEYRDLFIV, for which the amyloid nucleation score is -0.962 ± 0.78.

For the substance IRRTPHLISFLRKLCEYWIE, the amyloid nucleation score result was “inactive”.

Consider GYSTRIGASFGLGPVGCSAR, for which the amyloid nucleation score was 3.06 ± 0.087.

Turning to RFAMFMVVRWGWDHKYEFLR, the amyloid nucleation score is 0.353 ± 0.33.

Regarding LRADLYCFACLNAPSC, the amyloid nucleation score stood at 5.89 ± 0.091.

Substance LAISHMLSKCVKKIDTL displayed an amyloid nucleation score of 1.56 ± 0.2.

Consider QVTSNRSTGRRYILNQMC, for which the amyloid nucleation score was -0.337 ± 1.1.

YGGPGRNKGPNSCRSTATSV: the amyloid nucleation score is 1.02 ± 0.17.

KALCLYNVVRKKRCT returned an amyloid nucleation score of 0.152 ± 0.5.

Consider FLNESGSFWCSGFLIWVMRM, for which the amyloid nucleation score is -0.568 ± 0.76.

With KQGKRSTAHRSIVPLSFRH, the amyloid nucleation score is 1.58 ± 0.14.

As for NKLTV, the amyloid nucleation score is -0.381 ± 0.79.

Substance AYRQMYTGNVR gave an amyloid nucleation score of 3.97 ± 0.067.

For CAPQSGKLGG, the amyloid nucleation score was 1.01 ± 0.59.

In the case of TRVNNGSTVHNKMLTS, the amyloid nucleation score came to 0.634 ± 0.74.

The substance YKMILGCVVRVGYRILNCIR came in with an amyloid nucleation score of 0.295 ± 0.5.

For DQLWRIRYWLLTDVGRNRIF, the amyloid nucleation score is 0.343 ± 0.38.

Substance RMCVWHMLVIGVRGKTGATR had an amyloid nucleation score of 3.01 ± 0.11.

NWLCRWWQGWNLT: the amyloid nucleation score came out at 0.739 ± 0.28.

In turn, NSLYRGRRHRAYDINVSFVK gave an amyloid nucleation score of -0.392 ± 0.48.

TLVRSVQLCCGISAWNMEAR showed an amyloid nucleation score of 11.43 ± 0.031.

As to QNEVSLEVVFVKEGVGFDRL, the amyloid nucleation score was -0.665 ± 0.76.

For LWQVRIRPQH, the amyloid nucleation score was determined as 1.37 ± 0.12.

For the substance FTSSYKSAVRTLIFVLSESG, the amyloid nucleation score was determined as 0.331 ± 0.36.

The substance LYVGYSDMPVWSPASVCISI returned an amyloid nucleation score of 0.001 ± 0.65.

HTKVRGKRLCGDWSVRISCS: the amyloid nucleation score turned out to be 0.733 ± 0.29.

VATWGDQVLRMRWAALRLCV: the amyloid nucleation score turned out to be 5.96 ± 0.079.

Take VRLLMKLYNVPWVFH: the amyloid nucleation score entry was “inactive”.

SSRCFSVYSDIMYGTFLS: the amyloid nucleation score entry was “inactive”.

The substance YGSDALYWLVWVYV displayed an amyloid nucleation score of -0.016 ± 0.48.

The substance FSVTMDGYIRI showed an amyloid nucleation score of 0.06 ± 0.44.

For the substance SGSRVYFQTPN, the amyloid nucleation score entry is “inactive”.

The substance CIFGMDKHTYQHVVHSTLLV displayed an amyloid nucleation score of 0.181 ± 0.16.

The substance CSEYLCGVKVLTCWFGRRYS displayed an amyloid nucleation score of 0.174 ± 0.4.

Consider ERNSWISLIQTF, for which the amyloid nucleation score was -0.693 ± 0.39.

EMVIGMFKCTLISSIVLKTC: the amyloid nucleation score was found to be 0.484 ± 0.23.

Substance TISLDM gave an amyloid nucleation score of -0.033 ± 0.25.

The substance NGTINALFSDEAGWSSCGYL returned an amyloid nucleation score of 0.2 ± 0.34.

For ITCLWRAWNAVLRRGHYKTS, the amyloid nucleation score came to 0.615 ± 0.51.

Regarding LFISFAACGTF, the amyloid nucleation score came out at 2.09 ± 0.11.

With AICMAY, the amyloid nucleation score is 1.27 ± 0.095.

Substance ATFFILRTYGVWVTSIKRRS came in with an amyloid nucleation score of 0.157 ± 1.

VNFNMALDNYFSNFEYRVRN returned an amyloid nucleation score of -1.17 ± 0.35.

Take VAGDLGGRSELLARIRSGHA: the amyloid nucleation score entry was “inactive”.

RLKVIFRSLFHLLRAVRGSH gave an amyloid nucleation score of -1.36 ± 0.75.

RMFVLLNRPNGLSCKGMFRG displayed an amyloid nucleation score of 0.446 ± 0.64.

The substance VHIYQTPPLKCIWSMDKTPA displayed an amyloid nucleation score of -0.442 ± 1.

Regarding TFKMSGINPTD, the amyloid nucleation score is -1.19 ± 0.3.

For the substance RGVLVEFYGAMENISWSTYW, the amyloid nucleation score is -0.497 ± 0.76.

DLWGVI registered an amyloid nucleation score of 8.81 ± 0.026.

As for KHRRYFFCVGSIRWASVYKT, the amyloid nucleation score entry is “inactive”.

The substance NYCMRGVASIG returned an amyloid nucleation score of -0.475 ± 0.45.

In turn, ETYWWRQRLNSRLAFNWH showed an amyloid nucleation score of 5.16 ± 0.098.

THFPLHV had an amyloid nucleation score of -0.388 ± 0.37.

As for GLHEVR, the amyloid nucleation score is 0.042 ± 0.65.

In turn, PTRVKIFFQRMCGVVAVGWS had an amyloid nucleation score of 1.42 ± 0.39.

In turn, ASSNLNDTYITIDADSVHRR displayed an amyloid nucleation score of 0.033 ± 0.49.

On to YVLRQEVCIIPINSMFVNSF, for which the amyloid nucleation score amounted to 6.091 ± 0.045.

With RRSNLGNWFDV, the amyloid nucleation score was found to be 0.285 ± 1.

For RYVGRDR, the amyloid nucleation score entry is “inactive”.

As to WYVDSLLWEILSALECCVFM, the amyloid nucleation score result was “inactive”.

Substance IQVASRRIIM returned an amyloid nucleation score of 0.063 ± 0.21.

NSFRISGLVDLVNNLSGYLS had an amyloid nucleation score of -1.34 ± 0.61.

Substance HIGSVVVELLSVRLLWHCMH came in with an amyloid nucleation score of 5.94 ± 0.088.

VFLSRVFNSF returned an amyloid nucleation score of -0.317 ± 0.79.

VWYYGSRKCHAVYLRNRMSV gave an amyloid nucleation score of -0.192 ± 0.41.

As for NRLYSNRGQLNSLCISWFSG, the amyloid nucleation score entry is “inactive”.

Regarding VKHIGGISARVYKNCAASAV, the amyloid nucleation score was -0.74 ± 0.63.

Consider INWCYAPRLYFNHRWWDYCG, for which the amyloid nucleation score was 6.586 ± 0.054.

FSSSI: the amyloid nucleation score result is “inactive”.

Turning to YFYCRYYMNRWNYYL, the amyloid nucleation score was -0.396 ± 0.33.

On to SENFLYLDVVFMCHSMIDRG, for which the amyloid nucleation score amounted to 0.131 ± 0.54.

Regarding TRNSFRSSLWVLRGGCV, the amyloid nucleation score was -0.523 ± 0.37.

The substance VQPYSILNFRMELKANRLEL displayed an amyloid nucleation score of 4.4 ± 0.052.

SMISM came in with an amyloid nucleation score of 0.947 ± 0.3.

For WCGYCLTFLFPAQKQEAVLR, the amyloid nucleation score was 0.218 ± 0.35.

On to CNMIYNDKSLPKW, for which the amyloid nucleation score is -0.26 ± 0.32.

Regarding MKVLGNCISQIVNMDVWLLF, the amyloid nucleation score was -1.73 ± 0.47.

DFNSDFAGLLLDTNKYYIHD: the amyloid nucleation score is -0.088 ± 1.1.

As to KCGSSVVYFIVYQRKLKWGW, the amyloid nucleation score came out at 0.961 ± 0.81.

HVFFHFRDVTSGL had an amyloid nucleation score of 4.64 ± 0.065.

On to ADRWYYMQPNTLCSNVTANA, for which the amyloid nucleation score turned out to be 1.26 ± 0.37.

For HNPSIAARCGGICYDNITVW, the amyloid nucleation score was 0.838 ± 0.51.

RLSWLLLKFNDQVWRLIGAG: the amyloid nucleation score came out at 4.04 ± 0.054.

On to SQYFYMFWMSRATITNTIMP, for which the amyloid nucleation score was -0.217 ± 0.74.

As to VCRNDRLVWCKLGVEFSGVA, the amyloid nucleation score came out at 1.31 ± 0.26.

Turning to TLFLRMVSLHFKSVVLWNWF, the amyloid nucleation score turned out to be 0.213 ± 0.8.

As for DEWQRGRTLSDTF, the amyloid nucleation score was -0.295 ± 0.76.

For the substance FYSGKRARMGGEGGEKTPRS, the amyloid nucleation score is -1.2 ± 0.48.

AFSSCSMFATNRLPTSYKSD showed an amyloid nucleation score of 3.48 ± 0.084.

In the case of VRKGHPYALELLSCYVGCQP, the amyloid nucleation score worked out at 1.18 ± 0.25.

Substance IFRLELNTIIPPSQYNASAH gave an amyloid nucleation score of 4.57 ± 0.1.

TGHKFPLRGSMRVVLDFFSR showed an amyloid nucleation score of 3.09 ± 0.089.

With RLVWWVIWIPSKCMGADKNW, the amyloid nucleation score is -0.029 ± 0.8.

Substance VSFSSNHGFAMVRLSWSQKR gave an amyloid nucleation score of 5.49 ± 0.058.

Consider FSGIYESPMVLHMV, for which the amyloid nucleation score was -1.97 ± 0.62.

With NSSSYVDFGTICMDSIWMS, the amyloid nucleation score worked out at 0.041 ± 0.53.

In turn, WKFSYDFSASASGHHALVNK registered an amyloid nucleation score of 3.22 ± 0.13.

Substance HMHQPSSPHLLLCV registered an amyloid nucleation score of -0.47 ± 0.46.

Regarding VEGLQ, the amyloid nucleation score result was “inactive”.

YASCLSSKLCDEDNPTYW had an amyloid nucleation score of -0.488 ± 0.39.

The substance CSFLSLY displayed an amyloid nucleation score of -0.485 ± 0.64.

With PWVSILLVPMYQRHLTPHPE, the amyloid nucleation score is -0.121 ± 1.1.

Substance EGYAGVVQMALFYSWANIRL returned an amyloid nucleation score of 0.194 ± 0.62.

DTLLSMAKRCLDSVFLGFPR: the amyloid nucleation score is -0.134 ± 0.55.

As to KMYYGSKNTKSDLARTYGTL, the amyloid nucleation score was found to be 1.61 ± 0.44.

FCMADVYSGTLRNNYHTSEV yielded an amyloid nucleation score of -0.986 ± 0.31.

For the substance KMSVLG, the amyloid nucleation score was -0.936 ± 0.64.

SRNLGGNYGLGGWCNEEFRR registered an amyloid nucleation score of 0.185 ± 0.65.

IQWYNLYTENRMISKLRGSW displayed an amyloid nucleation score of -0.547 ± 1.1.

Substance SFMALYLSWFSQRDYAMAGS displayed an amyloid nucleation score of 0.639 ± 0.46.

The substance GTSFVKFEK gave an amyloid nucleation score of -0.186 ± 0.23.

Consider NMYLDVRRSDGICGHIY, for which the amyloid nucleation score is -1.28 ± 1.

TRVFTSWFVV gave an amyloid nucleation score of 0.342 ± 0.65.

The substance MYVDLWFGTYRNS gave an amyloid nucleation score of 0.532 ± 0.54.

DYPSKKGVVPPRLGISDKNV had an amyloid nucleation score of 2.86 ± 0.049.

For VSMEKVRSDGMDRFASGFAA, the amyloid nucleation score amounted to 0.361 ± 0.29.

In the case of YSYSSFLKVSGLSSDRLGYI, the amyloid nucleation score was -0.133 ± 0.49.

YAGWVGI: the amyloid nucleation score is -0.387 ± 1.1.

Take RVTHRQDCMNVLGSRDYFER: the amyloid nucleation score was -0.574 ± 0.39.

In the case of MYCLHCTTSCWSRLRLVNNF, the amyloid nucleation score came to 2.98 ± 0.16.

Consider FSSATDVCDGSRSIIRIAGA, for which the amyloid nucleation score is -0.283 ± 1.

With ALHSWFRMSSLSMYIVDMGG, the amyloid nucleation score is -0.077 ± 0.76.

For the substance PRDNSQVLILLNW, the amyloid nucleation score is 5.424 ± 0.041.

In the case of RSSLQSPWGYPKPMWLRSCA, the amyloid nucleation score was 1.06 ± 0.33.

The substance NNWYNTYYKSIKASQPRSSR gave an amyloid nucleation score of -0.797 ± 1.1.
